# The supplement of paper PMC9112550, “Optimization of the antimicrobial peptide Bac7 by deep mutational scanning” (BMC Biology, 2022)
# System: Escherichia coli TOP10
# Assay: shrunken log2 fold change of peptide-encoding DNA abundance (4.5 h post-induction vs induction); higher = less antimicrobial activity (less host growth inhibition)
# Conditions: time post-induction: 4.5 h; library: site-saturation at positions 5, 18, 19, 20
# 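Further: peptides expressed intracellularly from a pBAD plasmid library in pooled LB shake-flask culture, induced with 0.3% L-arabinose, DNA abundance read by NGS, three biological replicates, DESeq2 with apeglm shrinkage.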
row,Sequence,shrunken log2 fold change
1,RRIRVRPPRLPRPRPRPPQSPRP,0.249
2,RRIRRRPPRLPRPRPRPLHYPRP,0.239
3,RRIRCRPPRLPRPRPRPKHHPRP,-0.32
4,RRIRHRPPRLPRPRPRPSDYPRP,-0.343
5,RRIRRRPPRLPRPRPRPPTDPRP,0.709
6,RRIRLRPPRLPRPRPRPHFKPRP,-0.367
7,RRIRIRPPRLPRPRPRPPVRPRP,0.172
8,RRIRVRPPRLPRPRPRPNGRPRP,0.222
9,RRIRMRPPRLPRPRPRPIAFPRP,-0.0147
10,RRIRERPPRLPRPRPRPTPDPRP,0.116
11,RRIRQRPPRLPRPRPRPWNRPRP,0.013
12,RRIRYRPPRLPRPRPRPEYKPRP,-0.856
13,RRIRYRPPRLPRPRPRPTNRPRP,-0.363
14,RRIRIRPPRLPRPRPRPPAVPRP,0.279
15,RRIRDRPPRLPRPRPRPNCAPRP,-0.0166
16,RRIRYRPPRLPRPRPRPHGMPRP,-0.922
17,RRIRYRPPRLPRPRPRPDCTPRP,-0.268
18,RRIRSRPPRLPRPRPRPKKWPRP,0.0341
19,RRIRVRPPRLPRPRPRPASRPRP,0.275
20,RRIRCRPPRLPRPRPRPLQRPRP,0.203
21,RRIRDRPPRLPRPRPRPVCNPRP,0.861
22,RRIRIRPPRLPRPRPRPKTEPRP,-0.413
23,RRIRGRPPRLPRPRPRPTDAPRP,1.14
24,RRIRTRPPRLPRPRPRPQPMPRP,0.267
25,RRIRRRPPRLPRPRPRPSMIPRP,-0.114

row,Sequence,shrunken log2 fold change
1,RRIRKRPPRLPRPRPRPGRDPRP,0.688
2,RRIRPRPPRLPRPRPRPPMVPRP,0.0188
3,RRIRYRPPRLPRPRPRPMERPRP,0.0776
4,RRIRDRPPRLPRPRPRPYFGPRP,-0.551
5,RRIRGRPPRLPRPRPRPKMCPRP,0.102
6,RRIRVRPPRLPRPRPRPFHHPRP,-0.182
7,RRIRYRPPRLPRPRPRPQHKPRP,-0.547
8,RRIRQRPPRLPRPRPRPRLQPRP,0.501
9,RRIRRRPPRLPRPRPRPFDDPRP,-0.236
10,RRIRVRPPRLPRPRPRPDDIPRP,-0.442
11,RRIRWRPPRLPRPRPRPALQPRP,0.367
12,RRIRNRPPRLPRPRPRPCWKPRP,-0.0657
13,RRIRWRPPRLPRPRPRPGNYPRP,-0.00177
14,RRIRMRPPRLPRPRPRPTPFPRP,0.715
15,RRIRERPPRLPRPRPRPRHFPRP,-0.419
16,RRIRPRPPRLPRPRPRPNVEPRP,0.0775
17,RRIRDRPPRLPRPRPRPNFMPRP,-0.316
18,RRIRNRPPRLPRPRPRPPIQPRP,0.0569
19,RRIRWRPPRLPRPRPRPCQKPRP,-0.00776
20,RRIRVRPPRLPRPRPRPQNDPRP,-0.292
21,RRIRFRPPRLPRPRPRPKHDPRP,-0.168
22,RRIRVRPPRLPRPRPRPVACPRP,0.167
23,RRIRLRPPRLPRPRPRPCPTPRP,0.0726
24,RRIRSRPPRLPRPRPRPIYNPRP,-0.785
25,RRIRQRPPRLPRPRPRPDPDPRP,-0.00136

row,Sequence,shrunken log2 fold change
1,RRIRIRPPRLPRPRPRPYYEPRP,-1.06
2,RRIRQRPPRLPRPRPRPLIEPRP,-0.042
3,RRIRERPPRLPRPRPRPDTMPRP,-0.336
4,RRIRCRPPRLPRPRPRPSRAPRP,0.113
5,RRIRVRPPRLPRPRPRPTWRPRP,0.686
6,RRIRNRPPRLPRPRPRPQSLPRP,-0.139
7,RRIRLRPPRLPRPRPRPYIRPRP,-1.62
8,RRIRNRPPRLPRPRPRPNTWPRP,-0.382
9,RRIRSRPPRLPRPRPRPFRNPRP,-0.225
10,RRIRHRPPRLPRPRPRPVTYPRP,-0.181
11,RRIRARPPRLPRPRPRPMKRPRP,0.223
12,RRIRSRPPRLPRPRPRPKTNPRP,0.00294
13,RRIRTRPPRLPRPRPRPRFDPRP,0.332
14,RRIRHRPPRLPRPRPRPQIAPRP,-0.103
15,RRIRRRPPRLPRPRPRPRHNPRP,-0.14
16,RRIRGRPPRLPRPRPRPHFNPRP,0.232
17,RRIRRRPPRLPRPRPRPEEMPRP,1.38
18,RRIRRRPPRLPRPRPRPKFMPRP,0.122
19,RRIRDRPPRLPRPRPRPQRYPRP,-0.0811
20,RRIRVRPPRLPRPRPRPIEPPRP,-0.065
21,RRIRPRPPRLPRPRPRPWRHPRP,-0.0659
22,RRIRLRPPRLPRPRPRPSPFPRP,-0.183
23,RRIRWRPPRLPRPRPRPDDEPRP,0.606
24,RRIRFRPPRLPRPRPRPCSYPRP,-0.344
25,RRIRNRPPRLPRPRPRPQPVPRP,0.0704
